Test results taken from patent US20220372155A1 (LYVGEN BIOPHARMA, published 2022).

Assays:
[1] = molecular target: T1, human CD40 expressed on CHO cells (human, UniProt P25942 21-277); assay: FACS, CHO cells
T1 construct: whole, on cells; also used for the reporter cells over-expressing human CD40; also called cellular CD40; CHO-CD40 cells

[2] = molecular target: T2, human PD-1 expressed on CHO cells (human, UniProt Q15116 25-288); assay: FACS, CHO cells
T2 construct: whole, on cells; also used for human PD-1 on Jurkat reporter cells; also called Jurkat/NFkB-Luci/PD-1 cells
T2 sequence (Q15116 25-288): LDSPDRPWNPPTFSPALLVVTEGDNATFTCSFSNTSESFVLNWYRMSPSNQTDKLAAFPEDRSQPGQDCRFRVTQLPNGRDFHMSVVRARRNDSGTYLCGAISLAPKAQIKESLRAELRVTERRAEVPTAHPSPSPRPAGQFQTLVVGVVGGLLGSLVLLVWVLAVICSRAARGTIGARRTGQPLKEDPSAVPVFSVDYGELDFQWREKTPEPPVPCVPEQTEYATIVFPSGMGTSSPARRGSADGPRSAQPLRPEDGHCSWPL

[3] = molecular target: T3, Ly090 (human CD40 ECD protein with His tag) (human, UniProt P25942 21-193); assay: bridging ELISA, coated CD40 ECD-His, soluble PD-1 ECD-mFc
T3 construct: extracellular domain; also called human CD40 ECD protein (His tag); recombinant human CD40; not shown: His tag
T3 sequence (P25942 21-193): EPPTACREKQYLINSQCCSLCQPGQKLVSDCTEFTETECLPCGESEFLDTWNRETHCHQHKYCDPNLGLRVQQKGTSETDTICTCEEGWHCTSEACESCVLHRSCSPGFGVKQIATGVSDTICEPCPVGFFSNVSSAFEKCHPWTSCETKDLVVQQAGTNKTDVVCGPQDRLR
Method: (§1) Briefly, human CD40 ECD protein (His tag) was diluted and coated onto an ELISA plate with a volume of […] by incubation at 4° C. overnight. […] After 1-hour incubation at room temperature, HRP-conjugated anti-Mouse IgG (H+L) antibody was added into the plate at 100 μL/well. The plate was incubated for 1 hour at room temperature followed by washing. TMB substrate solution was added at 100 μL/well and the color development was stopped by adding 100 uL/well Stop Solution (2N H2SO4). Absorbance at 450 nm and 620 nm was read by Tecan F200 Pro plate reader. GraphPad 7.0, “[Agonist] vs. response—Variable slope (four parameters)” was used to plot the binding data and calculate binding EC50 values.

[4] = molecular target: T4, Human PD-1-ECD protein (mouse IgG2a Fc tag) (human, UniProt Q15116 25-170); assay: as above
T4 construct: extracellular domain; also called soluble human recombinant PD-1; not shown: mouse IgG2a Fc tag
T4 sequence (Q15116 25-170): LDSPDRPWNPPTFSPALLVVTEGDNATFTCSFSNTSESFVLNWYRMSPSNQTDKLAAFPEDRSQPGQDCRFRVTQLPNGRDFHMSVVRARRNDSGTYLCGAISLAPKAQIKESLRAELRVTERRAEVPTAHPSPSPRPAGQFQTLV
Method: as §1

[5] = molecular target: T5, human PD-L1 expressed on CHO cells (human, UniProt Q9NZQ7 19-290); assay: FACS, CHO cells
T5 construct: whole, on cells; also used for human PD-L1 on Raji cells in the reporter assay; also called cell surface PD-L1; Raji-PD-L1 cells
T5 sequence (Q9NZQ7 19-290): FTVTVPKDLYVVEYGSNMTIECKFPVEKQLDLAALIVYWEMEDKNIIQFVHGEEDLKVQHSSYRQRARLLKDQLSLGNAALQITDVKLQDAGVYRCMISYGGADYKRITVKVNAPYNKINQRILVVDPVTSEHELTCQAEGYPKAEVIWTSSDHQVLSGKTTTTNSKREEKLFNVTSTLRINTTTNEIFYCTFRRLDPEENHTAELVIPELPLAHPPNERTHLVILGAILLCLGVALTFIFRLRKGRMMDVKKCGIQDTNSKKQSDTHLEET

[6] = molecular target: T3, Ly090 (human CD40 ECD protein with His …); assay: bridging ELISA, coated CD40 ECD-His, soluble PD-L1 ECD-mFc
Method: (§2) Exemplary anti-PD-L1/CD40 bi-specific antibodies were analyzed by ELISA for their simultaneous binding to recombinant human PD-L1 and human CD40. Briefly, Ly090 (human CD40 ECD protein with His tag) was diluted and coated onto an ELISA plate with a volume of 100 μL/well by incubation at 4° C. overnight. The next day, the plate was blocked by PBST-BSA buffer, then serially diluted samples of anti-PD-L1/CD40 bi-specific antibodies were pipetted into appropriate wells at 50 μL/well, and the plate was incubated for 1 h followed by Washing. Human PD-L1 ECD protein (mouse IgG2a Fc tag) was added into the plate at 50 μL/well. After 1-hour incubation at room temperature, HRP-conjugated anti-Mouse IgG, Fc G2a antibody was added into the plate at 100 μL/well. The plate was incubated for 1 hour at room temperature followed by washing. TMB substrate solution was added at 100 μL/well and the color development was stopped by adding 100 uL/well Stop Solution (2N H₂SO₄). Absorbance at 450 nm and 620 nm was read by Tecan F200 Pro plate reader. GraphPad 7.0, “[Agonist] vs. response—Variable slope (four parameters)” was used to plot the binding data and calculate binding EC50 values.

[7] = molecular target: T6, Human PD-L1 ECD protein (mouse IgG2a Fc tag) (human, UniProt Q9NZQ7 19-238); assay: as above
T6 construct: extracellular domain; also called recombinant human PD-L1; not shown: mouse IgG2a Fc tag
T6 sequence (Q9NZQ7 19-238): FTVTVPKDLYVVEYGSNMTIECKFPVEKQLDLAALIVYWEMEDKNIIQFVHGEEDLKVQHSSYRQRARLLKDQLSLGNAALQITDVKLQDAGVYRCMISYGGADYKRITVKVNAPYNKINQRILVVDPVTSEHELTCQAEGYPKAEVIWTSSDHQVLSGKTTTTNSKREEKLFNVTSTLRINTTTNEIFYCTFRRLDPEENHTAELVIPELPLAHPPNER
Method: as §2

T1 sequence (P25942 21-277): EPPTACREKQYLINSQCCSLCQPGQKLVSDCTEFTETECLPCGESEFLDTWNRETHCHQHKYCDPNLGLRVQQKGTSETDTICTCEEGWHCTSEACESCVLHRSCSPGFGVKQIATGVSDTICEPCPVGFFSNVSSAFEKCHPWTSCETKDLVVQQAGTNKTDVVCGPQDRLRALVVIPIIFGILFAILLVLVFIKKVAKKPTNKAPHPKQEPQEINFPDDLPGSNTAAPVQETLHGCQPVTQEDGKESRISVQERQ

binding result [1] | binding result [2] | binding result [3] | binding result [4] | binding result [5] | binding result [6] | binding result [7] | Binder
binds | binds | binds | binds |  |  |  | Ly608 (bispecific antibody, human IgG1, kappa, Ly516 HC (IgG1 mutated Fc)-TM559 scFv VL-VH + Ly516 LC) heavy: QVTLKESGPALVKPTQTLTLTCTFSGFSLSTSGTCVSWIRQPPGKALEWLATICWEDSKGYNPSLKSRLTISKDTSKNQAVLTMTNMDPVDTATYYCARREDSGYFWFPYWGQGTLVTVSSASTKGPSVFPLAPSSKSTSGGTAALGCLVKDYFPEPVTVSWNSGALTSGVHTFPAVLQSSGLYSLSSVVTVPSSSLGTQTYICNVNHKPSNTKVDKKVEPKSCDKTHTCPPCPAPELLGPSVFLFPPKPKDTLMISRTPEVTCVVVDVSHEDPEVKFNWYVDGVEVHNAKTKPREEQYNSTYRVVSVLTVLHQDWLNGKEYKCKVSNKALPAPIEKTISKAKGQPREPQVYTLPPSREEMTKNQVSLTCLVKGFYPSDIAVEWESNGQPENNYKTTPPVLDSDGSFFLYSKLTVDKSRWQQGNVFSCSVMHEALHNHYTQKSLSLSPGGGGGSGGGGSGGGGSGGGGSDIQMTQSPSSLSASVGDRVTITCLASEDISNDLAWYQQKPGKAPKLLIYFVDRLLDGVPSRFSGSGSGTDFTLTISSLQPEDFATYYCQQSYKYPPTFGQGTKLEIKGGGGSGGGGSGGGGSGGGGSEVQLVESGGGLVQPGGSLRLSCAASGFTFTNYGLHWVRQAPGKGLEWVSSISPSGGVTYYRDSVKGRFTISRDNSKNTLYLQMNSLRAEDTAVYYCAKPFLGWGGANWIAHWGQGTLVTVSS light: NIQMTQSPSSLSASVGDRVTITCKAGQNVNNYLAWYQQKPGKAPKVLIFNANSLQTGVPSRFSGSGSGTDFTLTISSLQPEDFATYYCQQYNSWPTFGGGTKVEIKRTVAAPSVFIFPPSDEQLKSGTASVVCLLNNFYPREAKVQWKVDNALQSGNSQESVTEQDSKDSTYSLSSTLTLSKADYEKHKVYACEVTHQGLSSPVTKSFNRGEC
binds | binds | binds | binds |  |  |  | Ly609 (bispecific antibody, human IgG1, kappa, Ly516 HC (IgG1 mutated Fc)-TM559 scFv VH-VL + Ly516 LC) heavy: QVTLKESGPALVKPTQTLTLTCTFSGFSLSTSGTCVSWIRQPPGKALEWLATICWEDSKGYNPSLKSRLTISKDTSKNQAVLTMTNMDPVDTATYYCARREDSGYFWFPYWGQGTLVTVSSASTKGPSVFPLAPSSKSTSGGTAALGCLVKDYFPEPVTVSWNSGALTSGVHTFPAVLQSSGLYSLSSVVTVPSSSLGTQTYICNVNHKPSNTKVDKKVEPKSCDKTHTCPPCPAPELLGPSVFLFPPKPKDTLMISRTPEVTCVVVDVSHEDPEVKFNWYVDGVEVHNAKTKPREEQYNSTYRVVSVLTVLHQDWLNGKEYKCKVSNKALPAPIEKTISKAKGQPREPQVYTLPPSREEMTKNQVSLTCLVKGFYPSDIAVEWESNGQPENNYKTTPPVLDSDGSFFLYSKLTVDKSRWQQGNVFSCSVMHEALHNHYTQKSLSLSPGGGGGSGGGGSGGGGSGGGGSEVQLVESGGGLVQPGGSLRLSCAASGFTFTNYGLHWVRQAPGKGLEWVSSISPSGGVTYYRDSVKGRFTISRDNSKNTLYLQMNSLRAEDTAVYYCAKPFLGWGGANWIAHWGQGTLVTVSSGGGGSGGGGSGGGGSGGGGSDIQMTQSPSSLSASVGDRVTITCLASEDISNDLAWYQQKPGKAPKLLIYFVDRLLDGVPSRFSGSGSGTDFTLTISSLQPEDFATYYCQQSYKYPPTFGQGTKLEIK light: NIQMTQSPSSLSASVGDRVTITCKAGQNVNNYLAWYQQKPGKAPKVLIFNANSLQTGVPSRFSGSGSGTDFTLTISSLQPEDFATYYCQQYNSWPTFGGGTKVEIKRTVAAPSVFIFPPSDEQLKSGTASVVCLLNNFYPREAKVQWKVDNALQSGNSQESVTEQDSKDSTYSLSSTLTLSKADYEKHKVYACEVTHQGLSSPVTKSFNRGEC
binds |  |  |  | binds | binds | binds | Ly301 (bispecific antibody, human IgG1, kappa, Ly076 HC (IgG1 mutated Fc)-TM740 scFv VL-VH + Ly076 LC) heavy: QVQLVQSGAEVKKPGASVKVSCKASGYTFTDFWMSWVRQAPGQGLEWMGQIYPNTGTTHSNEKFKGRVTMTRDTSTSTVYMELSSLRSEDTAVYYCARSYHISTTPNWFAYWGQGTLVTVSSASTKGPSVFPLAPSSKSTSGGTAALGCLVKDYFPEPVTVSWNSGALTSGVHTFPAVLQSSGLYSLSSVVTVPSSSLGTQTYICNVNHKPSNTKVDKKVEPKSCDKTHTCPPCPAPELLGPSVFLFPPKPKDTLMISRTPEVTCVVVDVSHEDPEVKFNWYVDGVEVHNAKTKPREEQYNSTYRVVSVLTVLHQDWLNGKEYKCKVSNKALPAPIEKTISKAKGQPREPQVYTLPPSREEMTKNQVSLTCLVKGFYPSDIAVEWESNGQPENNYKTTPPVLDSDGSFFLYSKLTVDKSRWQQGNVFSCSVMHEALHNHYTQKSLSLSPGGGGGSGGGGSGGGGSGGGGSDIQMTQSPSSLSASVGDRVTITCKASQNIYIYLNWYQQKPGKAPKLLIYNTNNLQTGVPSRFSGSGSGTDFTLTISSLQPEDFATYYCLQHSSRRTFGGGTKVEIKGGGGSGGGGSGGGGSGGGGSQVQLVESGGGLVQPGGSLKLSCATSGFNFNDYFMNWVRQASGKGLEWVGQIRNKNYNYATYYTESLEGRVTISRDDSKNTAYLQMNSLKTEDTAVYYCTSYYYDGFADYFDYWGQGTTVTVSS light: DIQMTQSPSSLSASVGDRVTITCKASQNVYKKLEWYQQKPGKVPKVLIYHTNILQTGVPSRFSGSGSGTDYTLTISSLQPEDVATYYCYQWNSGPTFGGGTKVEIKRTVAAPSVFIFPPSDEQLKSGTASVVCLLNNFYPREAKVQWKVDNALQSGNSQESVTEQDSKDSTYSLSSTLTLSKADYEKHKVYACEVTHQGLSSPVTKSFNRGEC
binds |  |  |  | binds | binds | binds | Ly338 (bispecific antibody, human IgG1, kappa, Ly076 HC (IgG1 mutated Fc)-TM740 scFv VH-VL + Ly076 LC) heavy: QVQLVQSGAEVKKPGASVKVSCKASGYTFTDFWMSWVRQAPGQGLEWMGQIYPNTGTTHSNEKFKGRVTMTRDTSTSTVYMELSSLRSEDTAVYYCARSYHISTTPNWFAYWGQGTLVTVSSASTKGPSVFPLAPSSKSTSGGTAALGCLVKDYFPEPVTVSWNSGALTSGVHTFPAVLQSSGLYSLSSVVTVPSSSLGTQTYICNVNHKPSNTKVDKKVEPKSCDKTHTCPPCPAPELLGPSVFLFPPKPKDTLMISRTPEVTCVVVDVSHEDPEVKFNWYVDGVEVHNAKTKPREEQYNSTYRVVSVLTVLHQDWLNGKEYKCKVSNKALPAPIEKTISKAKGQPREPQVYTLPPSREEMTKNQVSLTCLVKGFYPSDIAVEWESNGQPENNYKTTPPVLDSDGSFFLYSKLTVDKSRWQQGNVFSCSVMHEALHNHYTQKSLSLSPGGGGGSGGGGSGGGGSGGGGSQVQLVESGGGLVQPGGSLKLSCATSGFNFNDYFMNWVRQASGKGLEWVGQIRNKNYNYATYYTESLEGRVTISRDDSKNTAYLQMNSLKTEDTAVYYCTSYYYDGFADYFDYWGQGTTVTVSSGGGGSGGGGSGGGGSGGGGSDIQMTQSPSSLSASVGDRVTITCKASQNIYIYLNWYQQKPGKAPKLLIYNTNNLQTGVPSRFSGSGSGTDFTLTISSLQPEDFATYYCLQHSSRRTFGGGTKVEIK light: DIQMTQSPSSLSASVGDRVTITCKASQNVYKKLEWYQQKPGKVPKVLIYHTNILQTGVPSRFSGSGSGTDYTLTISSLQPEDVATYYCYQWNSGPTFGGGTKVEIKRTVAAPSVFIFPPSDEQLKSGTASVVCLLNNFYPREAKVQWKVDNALQSGNSQESVTEQDSKDSTYSLSSTLTLSKADYEKHKVYACEVTHQGLSSPVTKSFNRGEC
